Reference: patent US20120283184A1 (published 2012)
One block for each binder: values may come before it.

Target: T1, human vascular endothelial growth factor receptor-2 Fc chimera (KDR-Fc) (human, UniProt P35968 20-764)
T1 construct: range 1-764; also called human VEGFR-2; not shown: human IgG1 Fc
Assay: radioactive equilibrium binding, 1 nM KDR-Fc, % of input
Method: To prepare ³⁵S-labeled binding proteins for analysis, mRNA was prepared as described above for RNA-protein fusion production but the linker ligation step was omitted. The mRNA was expressed using rabbit reticulocyte lysate translation kit (Ambion) in the presence of ³⁵S-labeled Met at 30° C. for 1 hour. Expressed protein was purified on M2-agarose Flag beads (Sigma) as described above. This procedure produced the encoded protein without the nucleic acid tail. In a direct binding assay, VEGF-R2-Fc fusions in concentrations ranging from 0 to 200 nM were added to a constant concentration of the purified protein (0.2 or 0.5 nM) and incubated at 30° C. for 1 hour in buffer B. The receptor-binder complexes were captured using Protein A magnetic beads for another 10 minutes at room temperature using a Kingfisher™ The beads were washed with six reaction volumes of buffer B. The protein was eluted from the beads with 100 μL of 0.1 M KOH. 50 μL of the reaction mixture and elution were dried onto a LumaPlate-96 (Packard) and the amount of ³⁵S on the plate was measured using a TopCount NXT instrument (Packard). The amount of fibronectin-based scaffold protein bound to the target was estimated as a percent of radioactivity eluted from Protein A magnetic beads compare to radioactivity in the reaction mixture. Nonspecific binding of fibronectin-based scaffold proteins to the beads was determined by measuring binding in the absence of KDR-Fc and represented less than 1-2% of the input. Specific binding was obtained through subtraction of nonspecific binding from total binding. Data was analyzed using the GraphPad Prizm software (GraphPad Software, Inc, San Diego, Calif.), fitted using a one site, non-linear binding equation.

T1 sequence (P35968 20-764 limits assumed, change not shown, form in doubt): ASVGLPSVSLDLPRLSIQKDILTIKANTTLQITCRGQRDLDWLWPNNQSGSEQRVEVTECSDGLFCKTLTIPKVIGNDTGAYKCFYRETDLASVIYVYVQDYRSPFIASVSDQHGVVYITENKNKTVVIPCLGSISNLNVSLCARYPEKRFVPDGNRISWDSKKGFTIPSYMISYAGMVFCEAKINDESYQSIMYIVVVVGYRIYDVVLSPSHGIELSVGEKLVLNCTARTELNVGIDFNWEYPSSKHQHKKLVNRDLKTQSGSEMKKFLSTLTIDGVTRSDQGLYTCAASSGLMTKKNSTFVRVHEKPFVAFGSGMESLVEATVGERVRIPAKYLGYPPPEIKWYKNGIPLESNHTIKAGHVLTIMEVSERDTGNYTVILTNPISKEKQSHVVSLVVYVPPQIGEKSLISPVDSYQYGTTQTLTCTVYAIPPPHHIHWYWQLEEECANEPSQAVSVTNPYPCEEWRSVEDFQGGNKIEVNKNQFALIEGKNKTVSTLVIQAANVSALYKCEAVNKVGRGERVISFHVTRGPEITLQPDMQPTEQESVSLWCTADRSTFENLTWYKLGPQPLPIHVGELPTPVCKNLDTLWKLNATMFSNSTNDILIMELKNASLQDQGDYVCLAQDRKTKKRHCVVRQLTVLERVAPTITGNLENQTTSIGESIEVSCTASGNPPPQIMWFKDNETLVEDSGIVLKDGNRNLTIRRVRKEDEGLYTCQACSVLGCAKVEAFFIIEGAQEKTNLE

Binding to 1 nM KDR, %: 34%
B18: 2′DelE4 PR4 (designed binder)
chain: EVVAATPTSLLISWRHPHFPTRYYRITYGETGGNSPVQEFTVPLQPPTATISGLKPGVDYTITVYAVTVHWNGHELMTPISINYRT

Binding to 1 nM KDR, %: 19%
B19: 2′DelG5 PR4 (designed binder)
chain: EVVAATPTSLLISWRHPHFPTRYYRITYGETGGNSPVQEFTVPLQPPTATISGLKPGVDYTITVYAVTVGQNNHELLTPISINYRT

Binding to 1 nM KDR, %: 30%
B20: 2′DelH4 PR4 (designed binder)
chain: EVVAATPTSLLISWRHPHFPTRYYRITYGETGGNSPVQEFTVPLQPPTATISGLKPGVDYTITVYAVTVGPNERMLMTPISINYRT

Binding to 1 nM KDR, %: 20%
B21: 2′DelH9 PR4 (designed binder)
chain: EVVAATPTSLLISWRHPHFPTRYYRITYGETGGNSPVQEFTVPLQPPTATISGLKPGVDYTITVYAVTVGWSGHELFVPISINYRT

Binding to 1 nM KDR, %: 23%
B22: 3A2 PR3 (designed binder)
chain: EVVAATPTSLLISWRHPHFPTRYYRITYGETGGNSPVQEFTVPLQPPTATISGLKPGVDYTITVYAVTWSQNNRELFTPISINYRT

Binding to 1 nM KDR, %: 23%
B23: 3A3 PR3 (designed binder)
chain: EVVAATPTSLLISWRHPHFPTRYYRITYGETGGNSPVQEFTVPLQPPTATISGLKPGVDYTITVYAVTLAYNGREIITPISINYRT

Binding to 1 nM KDR, %: 17%
B24: 3B4 PR3 (designed binder)
chain: EVVAATPTSLLISWRHPHFPTRYYRITYGETGGNSPVQEFTVPLQPPTATISGLKPGVDYTITVYAVTVGQNEHELLTPISINYRT

Binding to 1 nM KDR, %: 20%
B25: 3B5 PR3 (designed binder)
chain: EVVAATPTSLLISWRHPHFPTRYYRITYGETGGNSPVQEFTVPLQPPTATISGLKPGVDYTITVYAVTFGQNGHALLTPISINYRT

Binding to 1 nM KDR, %: 17%
B26: 3C3 PR3 (designed binder)
chain: EVVAATPTSLLISWRHPHFPTRYYRITYGETGGNSPVQEFTVPLQPPTATISGLKPGVDYTITVYAVTMEQNGHELFTPISINYRT

Binding to 1 nM KDR, %: 20%
B27: 3C7 PR3 (designed binder)
chain: EVVAATPTSLLISWRHPHFPTRYYRITYGETGGNSPVQEFTVPLQPPTATISGLKPGVDYTITVYAVTRGLNDGELLTPISINYRT

Binding to 1 nM KDR, %: 16%
B28: 3C9 PR3 (designed binder)
chain: EVVAATPTSLLISWRHPHFPTRYYRITYGETGGNSPVQEFTVPLQPPTATISGLKPGVDYTITVYAVTLVRNDHELLTPISINYRT

Binding to 1 nM KDR, %: 24%
B29: 3D12 PR3 (designed binder)
chain: EVVAATPTSLLISWRHPHFPTRYYRITYGETGGNSPVQEFTVPLQPPTATISGLKPGVDYTITVYAVTLGQNDRQLLVPISINYRT

The next lines start with the binder.

B1: 2′Del E5 PR4 (designed binder)
chain: EVVAATPTSLLISWRHPHFPTRYYRITYGETGGNSPVQEFTVPLQPPTATISGLKPGVDYTITVYAVTEGLNDHELIIPISINYRT
Binding to 1 nM KDR, %: 19%

B2: 2′Del E6 PR4 (designed binder)
chain: EVVAATPTSLLISWRHPHFPTRYYRITYGETGGNSPVQEFTVPLQPPTATISGLKPGVDYTITVYAVTMGKNGHELLTPISINYRT
Binding to 1 nM KDR, %: 43%

B3: 2′Del F1 PR4 (designed binder)
chain: EVVAATPTSLLISWRHPHFPTRYYRITYGETGGNSPVQEFTVPLQPPTATISGLKPGVDYTITVYAVTRDQYEHELLTPISINYRT
Binding to 1 nM KDR, %: 20%

B4: 2′Del F5 PR4 (designed binder)
chain: EVVAATPTSLLISWRHPHFPTRYYRITYGETGGNSPVQEFTVPLQPPTATISGLKPGVDYTITVYAVTLVHNDRELLTPISINYRT
Binding to 1 nM KDR, %: 22%

B5: 2′Del F6 PR4 (designed binder)
chain: EVVAATPTSLLISWRHPHFPTRYYRITYGETGGNSPVQEFTVPLQPPTATISGLKPGVDYTITVYAVTLGWNDHELYIPISINYRT
Binding to 1 nM KDR, %: 22%

B6: 2′Del F7 PR4 (designed binder)
chain: EVVAATPTSLLISWRHPHFPTRYYRITYGETGGNSPVQEFTVPLQPPTATISGLKPGVDYTITVYAVTLGLRDRELFVPISINYRT
Binding to 1 nM KDR, %: 38%

B7: 2′Del F8 PR4 (designed binder)
chain: EVVAATPTSLLISWRHPHFPTRYYRITYGETGGNSPVQEFTVPLQPPTATISGLKPGVDYTITVYAVTAGPGAHELLTPISINYRT
Binding to 1 nM KDR, %: 42%

B8: 2′Del F11 PR4 (designed binder)
chain: EVVAATPTSLLISWRHPHFPTRYYRITYGETGGNSPVQEFTVPLQPPTATISGLKPGVDYTITVYAVTMGQNDKELITPISINYRT
Binding to 1 nM KDR, %: 27%

B9: 2′Del G9 PR4 (designed binder)
chain: EVVAATPTSLLISWRHPHFPTRYYRITYGETGGNSPVQEFTVPLQPPTATISGLKPGVDYTITVYAVTVEQNGRELIIPISINYRT
Binding to 1 nM KDR, %: 33%

B10: 2′Del G11 PR4 (designed binder)
chain: EVVAATPTSLLISWRHPHFPTRYYRITYGETGGNSPVQEFTVPLQPPTATISGLKPGVDYTITVYAVTGGQMNRVLMTPISINYRT
Binding to 1 nM KDR, %: 22%

B11: 2′Del H5 PR4 (designed binder)
chain: EVVAATPTSLLISWRHPHFPTRYYRITYGETGGNSPVQEFTVPLQPPTATISGLKPGVDYTITVYAVTLGKDVRELLTPISINYRT
Binding to 1 nM KDR, %: 34%

B12: 2′Del H6 PR4 (designed binder)
chain: EVVAATPTSLLISWRHPHFPTRYYRITYGETGGNSPVQEFTVPLQPPTATISGLKPGVDYTITVYAVTTGHHDHELIIPISINYRT
Binding to 1 nM KDR, %: 28%

B13: 2′Del H12 PR4 (designed binder)
chain: EVVAATPTSLLISWRHPHFPTRYYRITYGETGGNSPVQEFTVPLQPPTATISGLKPGVDYTITVYAVTAGGNGHELLTPISINYRT
Binding to 1 nM KDR, %: 24%

B14: 2′DelA5 PR4 (designed binder)
chain: EVVAATPTSLLISWRHPHFPTRYYRITYGETGGNSPVQEFTVPLQPPTATISGLKPGVDYTITVYAVTWNQNGQELFTPISINYRT
Binding to 1 nM KDR, %: 20%

B15: 2′DelB7 PR4 (designed binder)
chain: EVVAATPTSLLISWRHPHFPTRYYRITYGETGGNSPVQEFTVPLQPPTATISGLKPGVDYTITVYAVTVGYNNRELLTPISINYRT
Binding to 1 nM KDR, %: 32%

B16: 2′DelC3 PR4 (designed binder)
chain: EVVAATPTSLLISWRHPHFPTRYYRITYGETGGNSPVQEFTVPLQPPTATISGLKPGVDYTITVYAVTWAQNGRELLTPISINYRT
Binding to 1 nM KDR, %: 29%

B17: 2′DelC7 PR4 (designed binder)
chain: EVVAATPTSLLISWRHPHFPTRYYRITYGETGGNSPVQEFTVPLQPPTATISGLKPGVDYTITVYAVTWDQNGHVLLTPISINYRT
Binding to 1 nM KDR, %: 19%
